For two molecules, Kd results are on record in article PMC11784017 (2024).

Usually Kd stands for the constant that tells how readily two partners part at equilibrium. A lower Kd goes with tighter binding.

This assay addresses T1, SVCV-G protein, purified, biotinylated (spring viremia of carp virus (SVCV), UniProt Q91DS0 19-509, biotin (biotinylated)).
T1 chain: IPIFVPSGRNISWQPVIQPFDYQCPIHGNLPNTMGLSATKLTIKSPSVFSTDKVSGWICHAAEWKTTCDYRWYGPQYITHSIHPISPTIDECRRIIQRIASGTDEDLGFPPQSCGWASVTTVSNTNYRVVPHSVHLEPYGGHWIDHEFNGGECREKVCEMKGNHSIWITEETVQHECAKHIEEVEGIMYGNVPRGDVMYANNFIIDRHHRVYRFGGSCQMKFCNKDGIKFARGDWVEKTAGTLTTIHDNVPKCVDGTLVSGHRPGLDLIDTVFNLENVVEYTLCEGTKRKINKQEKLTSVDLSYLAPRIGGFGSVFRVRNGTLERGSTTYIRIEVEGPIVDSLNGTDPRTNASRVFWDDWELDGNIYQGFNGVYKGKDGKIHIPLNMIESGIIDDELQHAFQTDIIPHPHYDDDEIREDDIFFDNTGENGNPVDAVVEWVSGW
The assay can be described thus: BLI. A general note: Biolayer interferometry detects binding as a change in optical thickness at a sensor tip.

B1: scFv-2 (scFv)
chain 1: QSVEESGGRLITPGTPLTLTCTASGFSLSSHYMIWVRRTPGKGLEWIGLIFISGSTNYANWAKGRFTVSRTSTTVDLKITSPTTEDTATYFCARGRGGTDYQSWLFGLWGQGTVVTVSS
chain 2: ELVMTQTPSPVSVAVGGTVTINCQSSPSVYSNYLSWYQQKPGQPPKQLIYGASSLASGVPSRFKGSGSGTQFTLTISGVECDDAATYYCVGWKGGPNGEFAFGGGDRAGDP
B1: the Kd was found to be 3.71 µM.

B2: scFv-1 (scFv)
chain 1: QSVEESGGRLVTPGTPLTLTCTASGFSLSTYYMTWVRQAPGKGLEWIGIIDPYGTTWSASWVKGRFTISRTSTTVDLKMTSLTAADTATYFCARIDSIYTIGHCDLWGQGTLVTVSL
chain 2: ELVMTQTPASVSAAVGGTVTIKCQASQSIGTALAWYQQKPGQPPKLLIYKTSTLASGVSSRFKGSGSGTEFTLTISDLECADAVTYYCQYAYYGGNDVGGAFGGGDRAGDP
As to B2, the Kd was 3.12 µM.
